Measured values from US6495144.

Key:
[1] = test system: CBF1 + EBNA2 SR360VD (PKC) SR360VD (Homo sapiens / Epstein-Barr virus); test: EMSA; settings: supershifted complex relative to wild-type
[2] = test system: CBF1 + EBNA2 del252-366 del252-366 (Homo sapiens / Epstein-Barr virus); test: EMSA; settings: no supershifted complex
[3] = test system: CBF1 + EBNA2 WW323SR (CR6) WW323SR (Homo sapiens / Epstein-Barr virus); test: EMSA; settings: no supershifted complex
[4] = test system: CBF1 + EBNA2 II307SR (CR5) II307SR (Homo sapiens / Epstein-Barr virus); test: EMSA; settings: supershifted complex relative to wild-type
[5] = test system: CBF1 + type A EBNA2 252-425 complex (Homo sapiens / Epstein-Barr virus); test: EMSA; settings: supershifted EBNA2/CBF1 complex, reference; EBNA2 tethered through CBF1
[6] = test system: CBF1 + EBNA2 del252-309,398-425 del252-309,del398-425 (Homo sapiens / Epstein-Barr virus); test: EMSA; settings: no supershifted complex
[7] = test system: CBF1 + EBNA2 GP320SR (CR6) GP320SR (Homo sapiens / Epstein-Barr virus); test: EMSA; settings: supershifted complex relative to wild-type
[8] = test system: CBF1 + EBNA2 PI326SR (CR6) PI326SR (Homo sapiens / Epstein-Barr virus); test: EMSA; settings: supershifted complex relative to wild-type
[9] = test system: CBF1 + EBNA2 del343-425 del343-425 (Homo sapiens / Epstein-Barr virus); test: EMSA; settings: no stable supershifted complex; partially competed CBF1 complex
[10] = test system: CBF1 + EBNA2 del344-357 del344-357 (Homo sapiens / Epstein-Barr virus); test: EMSA; settings: supershifted complex relative to wild-type
[11] = test system: CBF1 + EBNA2 LGL389SRT (CR7) LGL389SRT (Homo sapiens / Epstein-Barr virus); test: EMSA; settings: supershifted complex relative to wild-type
[12] = test system: CBF1 + EBNA2 del376-425 del376-425 (Homo sapiens / Epstein-Barr virus); test: EMSA; settings: supershifted complex relative to wild-type
CBF1/RBPJk [13] = biological target: CBF1/RBPJk (UniProt Q06330); test: EMSA supershift with heparin-agarose purified CBF1 and Cp CBF1 site probe; phosphoimager, relative to wild-type EBNA2(252-425)
Sequence of CBF1/RBPJk (Q06330 whole entry, the tested form may be a part): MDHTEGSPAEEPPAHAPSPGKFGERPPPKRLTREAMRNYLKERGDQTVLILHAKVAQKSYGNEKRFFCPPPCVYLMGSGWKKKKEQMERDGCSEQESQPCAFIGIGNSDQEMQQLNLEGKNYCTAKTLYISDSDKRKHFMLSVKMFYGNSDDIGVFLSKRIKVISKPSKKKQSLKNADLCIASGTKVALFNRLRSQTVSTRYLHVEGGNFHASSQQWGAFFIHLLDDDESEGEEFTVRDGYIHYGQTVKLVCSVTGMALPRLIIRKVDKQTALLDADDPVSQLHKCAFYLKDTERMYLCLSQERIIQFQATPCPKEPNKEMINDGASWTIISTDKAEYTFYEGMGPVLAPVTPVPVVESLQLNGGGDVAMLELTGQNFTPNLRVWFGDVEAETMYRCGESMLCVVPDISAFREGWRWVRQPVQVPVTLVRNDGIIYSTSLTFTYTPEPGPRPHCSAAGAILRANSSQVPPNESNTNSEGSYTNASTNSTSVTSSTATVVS

GAL4-CBF1 (KLV249AAA) = GAL4-CBF1 (KLV249AAA) (UniProt P04386); test: cell-based or functional assay
GAL4CBF1 (EEF233AAA) = GAL4CBF1 (EEF233AAA) (UniProt P04386); test: cell-based or functional assay
GAL4-CBF1 (wild-type) = GAL4-CBF1 (wild-type) (UniProt P04386); test: cell-based or functional assay
CBF1/RBPJk [14] = biological target: CBF1/RBPJk (UniProt Q06330); test: cell-based or functional assay

**Q.** Cp CBF1 binding site 30-bp probe was tested. Which binding signal [1] did it give?
**A.** The binding signal was 60%.

**Q.** And the binding signal [2]?
**A.** The binding signal was less than 1%.

**Q.** And the binding signal [3]?
**A.** The binding signal was less than 1%.

**Q.** What about the binding signal [4] of the same substance?
**A.** Its binding signal is 20%.

**Q.** And the binding signal [5]?
**A.** Its binding signal is 100%.

**Q.** What about the binding signal [6] of the same substance?
**A.** Its binding signal is less than 1%.

**Q.** What about the binding signal [7] of the same substance?
**A.** Its binding signal is 90%.

**Q.** And the binding signal [8]?
**A.** Its binding signal is 5%.

**Q.** And the binding signal [9]?
**A.** The binding signal was less than 1%.

**Q.** And the binding signal [10]?
**A.** Its binding signal is 100%.

**Q.** And the binding signal [11]?
**A.** Its binding signal is 50%.

**Q.** What about the binding signal [12] of the same substance?
**A.** Its binding signal is 10%.

**Q.** With “EBNA2 252-425 II307SR (CR5) (from UniProt P12978 252-425)” as the substance, how does the % Complex formation (CBF1/RBPJk [13]) read?
**A.** The % Complex formation was 20%.

**Q.** Which % Complex formation (CBF1/RBPJk [13]) does the source give for “EBNA2 252-425 del252-309,398-425 (from UniProt P12978 310-397)” here?
**A.** The % Complex formation was less than 1%.

**Q.** Which % Complex formation (CBF1/RBPJk [13]) does the source give for “EBNA2 252-425 del252-366 (from UniProt P12978 367-425)” here?
**A.** Its % Complex formation is less than 1%.

**Q.** Which % Complex formation (CBF1/RBPJk [13]) does the source give for “EBNA2 252-425 del343-425 (from UniProt P12978 252-342)” here?
**A.** The % Complex formation was less than 1%.

**Q.** For “EBNA2 252-425 del344-357 (from UniProt P12978 252-343; P12978 358-425)”, which % Complex formation (CBF1/RBPJk [13]) is on record?
**A.** The % Complex formation was 100%.

**Q.** For “EBNA2 252-425 del376-425 (from UniProt P12978 252-375)”, which % Complex formation (CBF1/RBPJk [13]) is on record?
**A.** The % Complex formation was 10%.

**Q.** For “EBNA2 (effector of Table 2) (from UniProt P12978 1-487)”, which Relative CAT Activity (relative to CAT reporter alone) (GAL4-CBF1 (KLV249AAA)) is on record?
**A.** Its Relative CAT Activity (relative to CAT reporter alone) is 21.

**Q.** How did the Relative CAT Activity (relative to CAT reporter alone) (GAL4CBF1 (EEF233AAA)) turn out when “Notch1IC (from UniProt Q01705 1751-2531) (receptor)” was run?
**A.** The Relative CAT Activity (relative to CAT reporter alone) was 4.2.

**Q.** And the Relative CAT Activity (relative to CAT reporter alone) (GAL4-CBF1 (KLV249AAA))?
**A.** The Relative CAT Activity (relative to CAT reporter alone) was 1.3.

**Q.** And the Relative CAT Activity (relative to CAT reporter alone) (GAL4-CBF1 (wild-type))?
**A.** The Relative CAT Activity (relative to CAT reporter alone) was 4.9.

**Q.** What does the source list for “Notch2IC (from UniProt Q9QW30 1789-2471) (receptor)”?
**A.** Relative CAT Activity (relative to CAT reporter alone) (GAL4CBF1 (EEF233AAA)): 4.5; Relative CAT Activity (relative to CAT reporter alone) (GAL4-CBF1 (KLV249AAA)): 1.3; Relative CAT Activity (relative to CAT reporter alone) (GAL4-CBF1 (wild-type)): 5.7

**Q.** “full-length EBNA2 GP320SR (CR6) (from UniProt P12978 1-487)” was tested. Which % Transactivation (CBF1/RBPJk [14]) did it give?
**A.** The % Transactivation was 120%.

**Q.** “full-length EBNA2 II307SR (CR5) (from UniProt P12978 1-487)” was tested. Which % Transactivation (CBF1/RBPJk [14]) did it give?
**A.** Its % Transactivation is 20%.

**Q.** How did the % Transactivation (CBF1/RBPJk [14]) turn out when “full-length EBNA2 LGL389SRT (CR7) (from UniProt P12978 1-487)” was run?
**A.** Its % Transactivation is 100%.

**Q.** For “full-length EBNA2 PI326SR (CR6) (from UniProt P12978 1-487)”, which % Transactivation (CBF1/RBPJk [14]) is on record?
**A.** The % Transactivation was 2%.

**Q.** And the transactivation at the highest levels of effector DNA (Cp-CAT, DG75 cells) (CBF1/RBPJk [14])?
**A.** The transactivation at the highest levels of effector DNA (Cp-CAT, DG75 cells) was 20%.

**Q.** With “full-length EBNA2 SR360VD (PKC) (from UniProt P12978 1-487)” as the substance, how does the % Transactivation (CBF1/RBPJk [14]) read?
**A.** The % Transactivation was 110%.

**Q.** With “full-length EBNA2 WW323SR (CR6) (from UniProt P12978 1-487)” as the substance, how does the % Transactivation (CBF1/RBPJk [14]) read?
**A.** The % Transactivation was 0%.

**Q.** “full-length EBNA2 del344-357 (from UniProt P12978 1-487)” was tested. Which % Transactivation (CBF1/RBPJk [14]) did it give?
**A.** The % Transactivation was 150%.

**Q.** For “wild-type EBNA2 (full-length, type A) (from UniProt P12978 1-487)”, which % Transactivation (CBF1/RBPJk [14]) is on record?
**A.** Its % Transactivation is 100%.
